# B1: T11.8-10-17: TCR of T cell clone T11.8-10-17 specific for NY-ESO-1/LAGE-1157-165 on HLA-A*02:01; variable α SEQ ID NO: 10, variable β SEQ ID NO: 11 (protein, listed as Homo sapiens)
# alpha: MKSLRVLLVILWLQLSWVWSQQKEVEQNSGPLSVPEGAIASLNCTYSDRGSQSFFWYRQYSGKSPELIMFIYSNGDKEDGRFTAQLNKASQYVSLLIRDSQPSDSATYLCAADDKIIFGKGTRLHILPN
# beta: MGSWTLCCVSLCILVAKHTDAGVIQSPRHEVTEMGQEVTLRCKPISGHDYLFWYRQTMMRGLELLIYFNNNVPIDDSGMPEDRFSAKMPNASFSTLKIQPSEPRDSAVYFCASSRGGSGYTFGSGTRLTVVE
# What was measured:
# Type in all cases: cell-based, human
# [1] = system: U266; assay: IFN-γ ELISA, stimulation by tumor cell lines; details: transduced CD8+ T cells 40,000, target cells 20,000
# Description: (§1) IFN-γ ELISA was used to assess cytokine secretion upon stimulation of T11.8-10-17-transduced T cells (CD8_T11.8-10-17) with a panel of HLA-A*02:01 positive, NY-ESO-1/LAGE-1 positive human tumor cell lines (Me1624.38, FM6, FM3.29, MM415, SAOS2, U266). NY-ESO-1/LAGE-1 expression in the target cells was detected by NanoString nCounter® analysis. As positive control for T11.8-10-17-transduced T cells, T2 cells were loaded with SLL-peptide (10^−5 M). As negative controls for the effector function, T11.8-10-17-transduced T cells were co-cultured with T2 cells loaded with irrelevant (FTV) peptide (10^−5M), SK-Me123 (HLA-A2pos, NY-ESO-1/LAGE-1neg) or SKM1 (HLA-A2pos, NY-ESO-1/LAGE-1neg), or untransduced T cells were co-cultured with tumor cells or peptide-loaded T2 cells. Cultivation of target cells without effector cells served as an additional negative control. Target cells were co-cultured with T cells at a ratio of 2:1 using 40,000 T11.8-10-17-transduced T cells and 20,000 target cells. (FIG. 3).
# [2] = system: SK-Me123 (HLA-A2pos, NY-ESO-1/LAGE-1neg); assay: IFN-γ ELISA, stimulation by tumor cell lines; details: antigen-negative line; transduced CD8+ T cells 40,000, target cells 20,000
# Description: as §1
# [3] = system: MM415; assay: IFN-γ ELISA, stimulation by tumor cell lines; details: transduced CD8+ T cells 40,000, target cells 20,000
# Description: as §1
# [4] = system: FM3.29; assay: IFN-γ ELISA, stimulation by tumor cell lines; details: transduced CD8+ T cells 40,000, target cells 20,000
# Description: as §1
# [5] = system: Me1624.38; assay: IFN-γ ELISA, stimulation by tumor cell lines; details: transduced CD8+ T cells 40,000, target cells 20,000
# Description: as §1
# [6] = system: FM6; assay: IFN-γ ELISA, stimulation by tumor cell lines; details: transduced CD8+ T cells 40,000, target cells 20,000
# Description: as §1
# [7] = system: SKM1 (HLA-A2pos, NY-ESO-1/LAGE-1neg); assay: IFN-γ ELISA, stimulation by tumor cell lines; details: antigen-negative line; transduced CD8+ T cells 40,000, target cells 20,000
# Description: as §1
# [8] = system: SAOS2; assay: IFN-γ ELISA, stimulation by tumor cell lines; details: transduced CD8+ T cells 40,000, target cells 20,000
# Description: as §1
# [9] = system: peptide-loaded T2 cells; assay: Recognition of mismatched epitopes: IFN-γ ELISA with peptide-loaded T2 cells; details: ratio 1:1
# Description: As a negative control, untransduced CD8^+ enriched PBMC (CD8_UT) were used as effector cells or TCR-transgenic T cells were stimulated with irrelevant (irr.; […]) peptide-loaded T2 cells (10^−5 M). Background IFN-γ secretion of target cells was also tested (targets only). As a positive control T cells were activated by SLL peptide (#10*)-loaded T2 cells (10^−5 M). […] IFN-γ secretion was measured by standard ELISA in [pg/mL].
# [10] = system: HLA-A*02:01-transgenic K562 cells; assay: Recognition of ivtRNA mismatched epitopes: IFN-γ ELISA with HLA-A*02:01-transgenic K562 cells; details: 16 hours
# Description: For this experiment, 3×10^6 K562 cells in 300 μl RPMI1640 medium were electroporated with 20 μg either NY-ESO-1 or eGFP-ivtRNA (300 Volt and 300 μF; exponential pulse). As positive control, T cells were stimulated with HLA-A*02:01-transgenic K562 cells loaded with either the SLL-peptide (10^−5M) (K562-A2+SLL) or with 20 μg ivtRNA encoding NY-ESO-1 (K562-A2+NY-ESO-1). As a negative control HLA-A*02:01-transgenic K562 were either loaded with irrelevant peptide (10^−5M; K562-A2+FTV) or with 20 μg ivtRNA encoding eGFP (K562-A2+eGFP).
# [11] = system: MM415 tumor cell line (HLA-A*02 positive, NY-ESO-1/LAGE-1 positive); assay: Killing of tumor cells, Annexin V live-cell imaging (IncuCyte ZOOM); details: TCR-transduced CD8+ T cells, effector-to-target about 4:1
# Description: (§2) The killing capacity of T11.8-10-17- or benchmark-TCR-transduced CD8^+ T cells (CD8-T11.8-10-17 or CD8 benchmark-TCR) was evaluated by co-culturing with the HLA-A*02 positive NY-ESO-1/LAGE-1 positive tumor cell line Me1624.38 (FIG. 2a). In addition, killing of CD8-T11.8-10-17 was also tested with the HLA-A*02 positive NY-ESO-1/LAGE-1 positive tumor cell line MM415 (FIG. 2b). As a negative control, untransduced CD8^+ enriched PBMC were used as effector cells (CD8 UT) or the HLA-A*02 positive but NY-ESO-1/LAGE-1 negative tumor cell line SK-Me123 was used as target cells. The co-cultures were set-up at an effector-to-target ratio of about 4:1, i.e. 10,000 adherent tumor cells were seeded one day prior to the co-culture and subsequently 40,000 transgenic TCR^+ T cells were added. An increase of red fluorescent target cells (Total Integrated Intensity in GCU×μm^2/Image) that indicates induction of apoptosis of target cells (Annexin V, red), was measured every four hours over a total time period of 67 hours using live-cell monitoring (IncuCyte® ZOOM).
# [12] = system: Me1624.38 tumor cell line (HLA-A*02 positive, NY-ESO-1/LAGE-1 positive); assay: as above; details: TCR-transduced CD8+ T cells, effector-to-target about 4:1
# Description: as §2
# [13] = system: SK-Me123 tumor cell line (HLA-A*02 positive, NY-ESO-1/LAGE-1 negative); assay: as above; details: antigen-negative target line; effector-to-target about 4:1; 67 hours
# Description: as §2
# [14] = system: T2 cells loaded with NY-ESO-1/LAGE-1157-165 (SLL) peptide (T2(SLL)); assay: Secretion of MIP-1α and MIP-1β, multiplex assay (Milliplex MAP Kit); details: T2(SLL) 10^−5 M; ratio 1:1, 10 000 cells each; 18 hours; two donors; compared with the other TCR
# Description: As negative control, T11.8-10-17- or benchmark-transgenic CD8^+ T cells were stimulated with HLA-A*02:01 positive FTV-loaded T2 cells or untransduced CD8^+ enriched PBMC (CD8_ut) were co-cultured with peptide-loaded T2 cells. Furthermore, T2 cells or T cells were cultured separately.
# Target cells and T cells were co-cultured at a ratio of 1:1 using 10 000 target cells and 10 000 T11.8-10-17- or benchmark-TCR-transduced T cells. Secretion of MIP-1α and MIP-1β by either T11.8-10-17- or benchmark-transgenic CD8^+ T cells was determined 18 hours after setting up the co-culture by multiplex assay using the Milliplex MAP Kit and analyzed by the MagPix analyzer.
# [15] = system: peptide-loaded T2 cells; assay: IFN-γ ELISA, peptide-loaded T2 controls of the tumor cell line panel
# Description: as §1
molecule,measurement,setting,value
B1,IFN-γ secretion,[1],high amounts of IFN-γ secretion
same,recognition (IFN-γ secretion),[2],no recognition
same,IFN-γ secretion,[3],high amounts of IFN-γ secretion
same,IFN-γ secretion,[4],high amounts of IFN-γ secretion
same,IFN-γ secretion,[5],high amounts of IFN-γ secretion
same,IFN-γ secretion,[6],high amounts of IFN-γ secretion
same,recognition (IFN-γ secretion),[7],no recognition
same,IFN-γ secretion,[8],high amounts of IFN-γ secretion
same,peptide recognition (IFN-γ secretion),[9]; T2 + irrelevant peptide (FTVSGNILTI) 10^−5 M,not the irrelevant peptide
same,cross-recognition (IFN-γ secretion),[9]; T2 + peptide #3 10^−5 M,cross-recognized
same,cross-recognition (IFN-γ secretion),[9]; T2 + peptide #6 10^−5 M,slightly activated
same,cross-recognition (IFN-γ secretion),[9]; T2 + peptide #11 10^−5 M,slightly activated
same,cross-recognition (IFN-γ secretion),[9]; T2 + peptide #32 10^−5 M,slightly activated
same,cross-recognition (IFN-γ secretion),[9]; T2 + peptide #34 10^−5 M,slightly activated
same,cross-recognition (IFN-γ secretion),[9]; T2 + peptide #51 10^−5 M,slightly activated
same,peptide recognition (IFN-γ secretion),[9]; T2 + positive control peptide SLL (SLLMWITQC) 10^−5 M,recognized
same,cross-recognition of internally processed peptide (IFN-γ release),"[10]; K562-A2+#3, ivtRNA long peptide",no cross-recognition
same,cross-recognition of internally processed peptide (IFN-γ release),"[10]; K562-A2+#6, ivtRNA long peptide",no cross-recognition
same,cross-recognition of internally processed peptide (IFN-γ release),"[10]; K562-A2+#11, ivtRNA long peptide",no cross-recognition
same,cross-recognition of internally processed peptide (IFN-γ release),"[10]; K562-A2+#32, ivtRNA long peptide",no cross-recognition
same,cross-recognition of internally processed peptide (IFN-γ release),"[10]; K562-A2+#34, ivtRNA long peptide",no cross-recognition
same,cross-recognition of internally processed peptide (IFN-γ release),"[10]; K562-A2+#51, ivtRNA long peptide",no cross-recognition
same,recognition (IFN-γ release),"[10]; K562-A2+NYESO, NY-ESO-1-ivtRNA transfected",recognized
same,recognition (IFN-γ release),"[10]; K562-A2+SLL, peptide-loaded 10^−5 M, target:T cell 2:1",recognized
same,recognition (IFN-γ release),[10]; K562-A2+eGFP ivtRNA,did not recognize
same,recognition (IFN-γ release),"[10]; K562-A2+irr., irrelevant peptide 10^−5 M",did not recognize
same,start of increase of red fluorescence (killing),[11],10 h
same,"killing of target cells (increase of red fluorescence, Annexin V)",[11]; 67 hours,showed killing
same,start of increase of red fluorescence (killing),[12],10 h
same,"killing of target cells (increase of red fluorescence, Annexin V)",[12]; 67 hours,showed killing
same,"killing of target cells (increase of red fluorescence, Annexin V)",[13],no increase of red fluorescence was observed
same,MIP-1α secretion,[14],markedly lower amounts
same,MIP-1β secretion,[14],markedly lower amounts
same,IFN-γ secretion,[15]; T2 cells loaded with SLL-peptide (10^−5 M),high amounts of IFN-γ secretion
same,recognition (IFN-γ secretion),[15]; T2 cells loaded with irrelevant (FTV) peptide (10^−5 M),no recognition
